# Numbering of substitutions follows the chain as printed.
# T1: Human CD98 ECD with N-terminal His-tag (human, UniProt P08195 105-529)
# T1 construct: The entry includes the linker and the polyhistidine tag; also called huCD98 ECD
# T1 sequence: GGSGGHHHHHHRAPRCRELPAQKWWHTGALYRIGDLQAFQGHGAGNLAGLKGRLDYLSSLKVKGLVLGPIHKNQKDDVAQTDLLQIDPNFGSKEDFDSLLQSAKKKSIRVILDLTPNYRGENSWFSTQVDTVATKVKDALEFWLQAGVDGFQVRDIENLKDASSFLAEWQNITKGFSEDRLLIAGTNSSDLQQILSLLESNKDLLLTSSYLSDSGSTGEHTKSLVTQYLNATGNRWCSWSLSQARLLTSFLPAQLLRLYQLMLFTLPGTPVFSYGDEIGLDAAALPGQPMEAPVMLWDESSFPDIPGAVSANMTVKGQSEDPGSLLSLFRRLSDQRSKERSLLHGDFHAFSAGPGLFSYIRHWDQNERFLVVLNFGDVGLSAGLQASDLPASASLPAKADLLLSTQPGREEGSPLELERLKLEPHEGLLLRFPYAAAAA
# T2: Cynomolgus monkey CD98 ECD with C-terminal His-tag (SEQ ID NO: 127) (cynomolgus monkey, UniProt P08195 105-529 (human entry))
# T2 construct: The entry includes the linker and the polyhistidine tag; also called cyCD98 ECD
# T2 chain: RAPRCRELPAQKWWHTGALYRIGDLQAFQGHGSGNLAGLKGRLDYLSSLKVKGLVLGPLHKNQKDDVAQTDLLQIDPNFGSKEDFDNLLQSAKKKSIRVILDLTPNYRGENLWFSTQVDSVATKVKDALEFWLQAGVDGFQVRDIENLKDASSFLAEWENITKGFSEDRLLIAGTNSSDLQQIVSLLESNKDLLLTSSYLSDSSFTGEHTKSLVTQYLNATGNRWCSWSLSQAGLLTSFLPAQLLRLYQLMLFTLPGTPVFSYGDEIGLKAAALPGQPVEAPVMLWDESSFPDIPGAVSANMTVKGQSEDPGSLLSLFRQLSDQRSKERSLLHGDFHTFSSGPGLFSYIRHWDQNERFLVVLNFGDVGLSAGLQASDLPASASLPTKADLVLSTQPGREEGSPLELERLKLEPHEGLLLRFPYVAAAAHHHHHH
# T3: Cynomolgus monkey CD98 ECD with C-terminal His-tag (cynomolgus monkey, UniProt P08195 105-529 (human entry))
# T3 construct: also called cyCD98 ECD; recombinant cynomolgus monkey CD98 extracellular domain
# T3 chain: T2 chain
# T4: Human CD98 ECD with C-terminal His-tag (human, UniProt P08195 105-529)
# T4 construct: also called huCD98 ECD; recombinant human CD98 extracellular domain
# T4 sequence: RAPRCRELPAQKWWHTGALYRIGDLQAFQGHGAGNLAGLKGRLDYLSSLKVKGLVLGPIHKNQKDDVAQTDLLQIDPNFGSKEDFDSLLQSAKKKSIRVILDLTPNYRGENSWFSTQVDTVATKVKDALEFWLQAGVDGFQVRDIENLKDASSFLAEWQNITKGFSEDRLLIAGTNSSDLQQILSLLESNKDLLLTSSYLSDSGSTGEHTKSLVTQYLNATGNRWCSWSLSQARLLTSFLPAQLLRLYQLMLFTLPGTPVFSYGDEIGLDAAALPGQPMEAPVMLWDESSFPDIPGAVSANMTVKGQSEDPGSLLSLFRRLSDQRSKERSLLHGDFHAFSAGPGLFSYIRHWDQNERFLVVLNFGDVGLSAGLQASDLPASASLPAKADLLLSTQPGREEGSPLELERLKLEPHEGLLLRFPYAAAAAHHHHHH
# B1: huAb101 (antibody, V domains shown)
# VH: EVQLVESGGGLVKPGGSLRLSCATSGFTFIDYYMSWVRQAPGKGLEWLGFIRNKANRYTTEYSASVKGRFTISRDNSKSILYLQMNSLKTEDTAVYYCTRDRPAWFVYWGQGTLVTVSS
# VL: DIVMTQTPLSLPVTPGEPASISCKSSQSLLYSSNQKNYLAWYLQKPGQSPQLLIYWASTRESGVPDRFSGSGSGTDFTLKISRVEAEDVGVYYCQQYYSYPYTFGGGTKVEIK
# notes: Framework re-engineered humanized clone (parent huAb3v1), expressed as full-length IgG
# B2: huAb107 (antibody, V domains shown)
# VH: EVQLVESGGGLVQPGGSLRLSCAASGFTFSDYTMAWVRQAPGKGLEWVATIIYSGRGTYYRDAVKGRFTISRDNAKNTLYLQMNSLRAEDTAVYYCARQSDDTYYYWGYFDYWGQGTMVTVSS
# VL: B1 VL with S22N, Y31F, S33G, E61Q, V91I, S99D, Y100V, G106Q, V110L
# notes: Framework re-engineered humanized clone (parent huAb15v2), expressed as full-length IgG
# B3: huAb102 (antibody, human IgG1, kappa, L234A L235A, V domains shown)
# VH: B1 VH with K13Q
# VL: DIVMTQTPLSLPVTPGEPASISCKSSQSLLYSSNQKNYLAWYLQKPGQSPQLLIYWASTRESGVPDRFSGSGSGTDFTLKISRVEAEDVGVYYCQQYYSYPYTFGGGTKVEIKR
# notes: Framework re-engineered humanized clone (parent huAb3v1); also called CL-huAb102
# B4: huAb103 (antibody, V domains shown)
# VH: B1 VH with N56Y, R57G
# VL: B1 VL
# notes: Framework re-engineered humanized clone (parent huAb3v2), expressed as full-length IgG; also called haAb103
# B5: huAb104 (antibody, human IgG1, kappa, L234A L235A, V domains shown)
# VH: B1 VH with K13Q, N56Y, R57G
# VL: B3 VL
# notes: Framework re-engineered humanized clone (parent huAb3v2); also called CL-huAb104
# B6: Anti-CD98 rat hybridoma antibody Ab11 (antibody, V domains shown)
# VH: EVQLVESGGGLVQPGRSLKLSCAASGFTFSDYAMAWVRQAPKKGLEWVAGIIYDGRGTYYRDSVKGRFTISRDNAKSTLYLQMDSLRSEDTATYYCARQGDGTYYYWGYFDYWGQGVMVTVSS
# VL: DIVMTQSPSSLAVSAGETVTINCRSSQSLLSSGNQKNYLAWYQQKPGQSPKLLIYWASTRQSGVPDRFIGSGSGTDFTLTISSVQAEDLAIYYCQQYYDTPYTFGAGTKLELK
# B7: Anti-CD98 rat hybridoma antibody Ab10 (antibody, V domains shown)
# VH: B6 VH with G44S, G50T, Y60C, Y105H
# VL: B6 VL with R24K, L110V, E111D
# B8: Anti-CD98 rat hybridoma antibody Ab15 (antibody, V domains shown)
# VH: B6 VH with A33T, G50T, G100S
# VL: B6 VL with R24K, S31F, S82R, T100S
# B9: Anti-CD98 murine hybridoma antibody Ab4 (antibody, V domains shown)
# VH: EVKLVESGGGLVQPGGSLRLSCTTSGFTFTDYYMSWVRQPPGKALEWLGFIRNKATIYTTEYSASVKGRFTISRDNSQSILYLQMNTLRAEDSATYYCARASYGNSEGWFAYWGQGTLVTVSA
# VL: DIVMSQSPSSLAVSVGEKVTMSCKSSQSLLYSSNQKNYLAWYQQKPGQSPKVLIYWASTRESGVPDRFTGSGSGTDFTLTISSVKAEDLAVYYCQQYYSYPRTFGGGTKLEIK
# B10: Anti-CD98 murine hybridoma antibody Ab5 (antibody, V domains shown)
# VH: B9 VH with T23A, S35T, T56N, I57G, Q78L, G104V
# VL: DIVMSQSPSSLAVSVGEKVTMSCKSSQSLLYSSNQKNYLAWYQQKLGQSPKLLIYWASTRESGVPDRFTGSGSGTDFTLTISSVKAEDLAVYYCQHYYSYPRTFGGGTKLEIK
# B11: Anti-CD98 murine hybridoma antibody Ab2 (antibody, V domains shown)
# VH: B9 VH with T23A, T28N, T56N, I57G, N76D
# VL: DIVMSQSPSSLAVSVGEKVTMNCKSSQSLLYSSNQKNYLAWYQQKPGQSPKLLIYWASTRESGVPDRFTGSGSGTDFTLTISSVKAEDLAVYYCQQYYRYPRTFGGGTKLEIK
# B12: Anti-CD98 murine hybridoma antibody Ab3 (antibody, V domains shown)
# VH: EVKLVESGGGLVQPGNSLRLSCATSGFTFIDYYMSWVRQSPGKALEWLGFIRNKANGYTTEYSASVKGRFTISRDNSQSILYLQMDTLRAEDSATYYCTRDRPAWFVYWGQGTLVTVSA
# VL: B10 VL with L46P, I81F, K85R, H96Q, R102Y
# B13: Anti-CD98 rat hybridoma antibody Ab7 (antibody, V domains shown)
# VH: QVQLKESGPGLVQPSQTLSLTCTVSGFSLSTYGVIWVRQPPGKGLEWMGVIWANGNTNYNSTLKSRLSISRDTSKSQVYLKMNSLQTEDTATYYCARHYYDGTYYYGYFDYWGQGVMVTVSS
# VL: DIVMTQTPSSQAVSAGEKVTMNCKSSQSLLYSENKKNYLAWYQQKPGQSPKLLIYWASTRESGVPDRFIGSGSGTDFTLTISSVQAEDLAVYYCQQYYYFPYTFGPGTKLELK
# B14: Anti-CD98 rat hybridoma antibody Ab6 (antibody, V domains shown)
# VH: B13 VH with V12A, V37L, A53T, K75E, K81Q, T103A
# VL: B13 VL with N22S, P106A
# B15: Anti-CD98 rat hybridoma antibody Ab9 (antibody, V domains shown)
# VH: B13 VH with T23A, T31N, G49A, A53T
# VL: B13 VL with N22S, S32T, I69M, T103M, P106A
# Biological target: T1, Human CD98 ECD with N-terminal His-tag
# Test: SPR (Biacore), recombinant CD98 ECD
Binder,Kd [nM],koff [s⁻¹],kon [M⁻¹ s⁻¹]
B1,6.1,0.0018,290000
B2,0.33,3.8e-05,110000
B3,5.5,0.0018,330000
B4,3.4,0.00059,180000
B5,2,0.00091,450000

# Biological target: T2, Cynomolgus monkey CD98 ECD with …
# Test: SPR (Biacore), recombinant CD98 ECD
Binder,Kd [nM],koff [s⁻¹],kon [M⁻¹ s⁻¹]
B1,23,0.00067,30000
B2,2.7,8.7e-05,33000
B3,21,0.00068,32000
B4,14,0.00044,31000
B5,14,0.00048,34000

# Biological target: T3, Cynomolgus monkey CD98 ECD with …
# Test: SPR Biacore, anti-Fc capture of mAb, CD98 ECD analyte
# Description: (§1) The binding kinetics of these purified mouse and rat monoclonal anti-CD98 antibodies for purified recombinant CD98 protein (extracellular domain. ECD) were determined by surface plasmon resonance-based measurements made on Biacore T100/T200 instruments (GE Healthcare, Piscataway, N.J.) at 25° C. using an anti-Fc capture assay approach. Binding kinetic measurements were made in the assay buffer HBS-EP+: 10 mM Hepes, pH 7.4, 150 mM NaCl, 3 mM EDTA, 0.05% Tween 20). For example, approximately 8000 RU of anti-Fc (species specific) polyclonal antibody (Thermo Fisher Scientific Inc. Rockford, Ill.) diluted in 10 mM sodium acetate (pH 4.5) was directly immobilized across a CM5 research grade biosensor chip using a standard amine coupling kit according to manufacturer's instructions and procedures at 25 μg/ml. Unreacted moieties on the biosensor surface were blocked with ethanolamine. The test antibody to be captured as a ligand was diluted in running buffer to ˜0.5 μg/mL and injected over anti-Fc surface at a flow rate of 10 μL/min, CD98 binding and dissociation were observed under a continuous flow rate of 80 μL/min. Human and cynomolgus monkey CD98 ECDs, both with a C-terminal His-tag, are used for this study (Table 3). After each cycle the anti-Fc capture surface was regenerated using 10 mM Glycine-HCl, pH 1.5. During the assay, all measurements were referenced against the capture surface alone (i.e., with no captured test antibody) and buffer-only injections (no antigen) were used for double referencing. For kinetic analysis, rate equations derived from the 1:1 Langmuir binding model were fitted simultaneously, globally and with mass transfer term included to multiple referenced antigen binding curves using Biacore T100T200 Evaluation software.
Binder,Kd [nM],koff [s⁻¹],kon [M⁻¹ s⁻¹]
B6,72,0.0017,24000
B7,7.8,0.00049,62000
B8,3.3,9.6e-05,29000
B9,1.8,1.7e-05,9700
B10,11,0.00022,21000
B11,37,0.00086,24000
B12,30,0.0012,38000
B13,3,0.00027,91000
B14,5.9,0.00037,62000
B15,9.9,0.00051,51000

# Biological target: T4, Human CD98 ECD with C-terminal His-tag
# Test: as above
# Description: as §1
Binder,Kd [nM],koff [s⁻¹],kon [M⁻¹ s⁻¹]
B6,18,0.0012,65000
B7,2,0.00024,130000
B8,0.68,5.3e-05,77000
B9,0.83,3.7e-05,44000
B10,2.2,0.00012,52000
B11,1.1,8.1e-05,73000
B12,15,0.003,200000
B13,0.76,0.00015,200000
B14,1.1,0.00016,150000
B15,1.2,0.00015,130000

# — patent US20200147235A1 (AbbVie / Abbott, published 2020)
